Five molecules from publication PMC5481743, “Cryptic indole hydroxylation by a non-canonical terpenoid cyclase parallels bacterial xenobiotic detoxification” (Nature Communications, 2017) can be followed below.

For series [1], the target named is XiaF (recombinant, N-terminal histidine-tag, construct pET26b(+)-xiaF used for crystallization) (Streptomyces sp. HKI0576). In words: crystal structure; hanging drop vapour diffusion at 20 °C; XiaF apo (5LVU), with FADH2 (5LVW), with FADH2 and glycerol (5MR6); molecular replacement.
The target of series [2] is His-tagged XiaF (44.5 kDa, from pXU520) (Streptomyces sp. HKI0576). Kind of series: SEC; HiLoad 16/600 Superdex 200 prep grade; 20 mM Tris-HCl pH 8.0, 100 mM NaCl; calibrated with Gel Filtration Calibration Kits.
For the next series, the target named is T1, XiaF (Streptomyces sp. HKI0576, UniProt I7IIA9).
T1 construct: full-length (Met1-Leu397), N-terminal His-tag (pET-28b, thrombin-cleavable; pET-26b with MHHHHHH for crystals); from E. coli; homotetramer
T1 sequence (I7IIA9 entry or part of it): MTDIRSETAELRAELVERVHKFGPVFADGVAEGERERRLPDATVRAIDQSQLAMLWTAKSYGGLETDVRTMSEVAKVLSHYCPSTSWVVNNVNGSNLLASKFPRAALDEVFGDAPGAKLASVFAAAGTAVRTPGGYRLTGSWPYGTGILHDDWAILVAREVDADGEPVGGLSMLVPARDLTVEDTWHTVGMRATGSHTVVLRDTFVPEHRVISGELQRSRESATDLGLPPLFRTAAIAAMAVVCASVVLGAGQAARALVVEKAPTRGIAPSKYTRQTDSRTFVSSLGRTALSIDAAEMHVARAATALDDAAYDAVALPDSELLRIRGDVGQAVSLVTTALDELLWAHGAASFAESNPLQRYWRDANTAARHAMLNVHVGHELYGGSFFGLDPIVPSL
In words: HPLC-HRMS biotransformation assay. The series is classed as biochemical. As to conditions: 100 uM substrate, 500 uM NADH, 50 uM FAD, flavin reductase XiaP, pH 8.0, 28 °C.

Series [3] concerns the target untagged XiaF (42.4 kDa, tag cleaved with thrombin) (Streptomyces sp. HKI0576). In words: SEC; HiLoad 16/600 Superdex 200 prep grade; 20 mM Tris-HCl pH 8.0, 100 mM NaCl; calibrated with Gel Filtration Calibration Kits. For orientation: In gel filtration, larger molecules generally elute earlier.
Series [4] deals with the molecule itself. In words: SEC; HiLoad 16/600 Superdex 200 prep grade; 100 mM NaH2PO4, 100 mM Na2HPO4, 2% glycerol, pH 7.0.

The term stoichiometry N denotes the number of molecules, sites or subunits per partner or assembly. On to “XiaF (recombinant, N-terminal histidine-tag, construct pET26b(+)-xiaF used for crystallization) (enzyme)”, for which the stoichiometry N in series [1] amounted to 4.

On to “His-tagged XiaF (44.5 kDa, from pXU520) (enzyme)”, for which the stoichiometry N in series [2] was found to be 4.

Regarding `C=C1CC[C@@H]2[C@](C)(CC[C@H](O)[C@@]2(C)C(=O)O)[C@H]1Cc1c[nH]c2ccccc12` [compound 2, indosespene], the HPLC-HRMS biotransformation assay result at XiaF was “we found that XiaP substantially increases the performance of XiaF”.

In series [3], “untagged XiaF (42.4 kDa, tag cleaved with thrombin) (enzyme)” showed a stoichiometry N of 4.

B1: His-tagged XiaP (enzyme, Streptomyces sp. HKI0576)
chain: MIDRETFVELMSGVCAPVTVVTTATADGRPHGSTVSSFTSLSLDPPLASFALDRGSGLLPHLHQGARVGVNILAAHQHALAASFARRCPGTGSKFDGITWTTRAGLPHLPDSAGWTAGRVERHVPGGDHVLLVISVEEAHSTPAAPLVYLRRSFGTYSGLPAGG
notes: XiaP, NADH:flavin oxidoreductase of Streptomyces sp; HKI0576; also called flavin reductase XiaP; flavoenzyme-reductase; source: E. coli BL21-CodonPlus(DE3)-RP (pET28c-xiaP), purified (Ni-NTA, SEC)
For the molecule B1, the “stoichiometry N” value in series [4] was 2.
